Test results reported in PMC5007808, “Structure-oriented substrate specificity engineering of aldehyde-deformylating oxygenase towards aldehydes carbon chain length” (Biotechnology for Biofuels, 2016).

Columns and labels:
[1] = substrate: CCCCCCCC=O; experiment: GC headspace quantification of alkane product; format: biochemical, Synechococcus elongatus; details: NADH/PMS reducing system, catalase, 80 uM ferrous ammonium sulfate, 100 mM HEPES, 100 mM KCl, pH 7.2, 37 °C
[2] = substrate: CCCCCCCCC=O; experiment: GC headspace quantification of alkane product; format: biochemical, Synechococcus elongatus; details: NADH/PMS reducing system, catalase, 80 uM ferrous ammonium sulfate, 100 mM HEPES, 100 mM KCl, pH 7.2, 37 °C
[3] = substrate: CCCCCCC=O; experiment: GC headspace quantification of alkane product; format: biochemical, Synechococcus elongatus; details: NADH/PMS reducing system, catalase, 80 uM ferrous ammonium sulfate, 100 mM HEPES, 100 mM KCl, pH 7.2, 37 °C
purified protein = substrate: CCCCCC=O; experiment: purified protein; details: NADH/PMS reducing system, catalase, 80 uM ferrous ammonium sulfate, 100 mM HEPES, 100 mM KCl, pH 7.2, room temperature

Row | Protein | Km [1] [mM] | kcat [1] [s⁻¹] | kcat/Km [1] [M⁻¹ s⁻¹] | Km [2] [mM] | kcat [2] [s⁻¹] | kcat/Km [2] [M⁻¹ s⁻¹] | Km [3] [mM] | kcat [3] [s⁻¹] | kcat/Km [3] [M⁻¹ s⁻¹] | Km (purified protein) [mM] | kcat (purified protein) [s⁻¹] | kcat/Km (purified protein) [M⁻¹ s⁻¹]
1 | cADO-1593 (Synechococcus elongatus PCC 7942 = FACHB-805) (protein, full length, codon-optimized gene in pET-28a, His-tag (nickel column), E. coli BL21(DE3); apo enzyme reconstituted with Fe(II)) MPQLEASLELDFQSESYKDAYSRINAIVIEGEQEAFDNYNRLAEMLPDQRDELHKLAKMEQRHMKGFMACGKNLSVTPDMGFAQKFFERLHENFKAAAAEGKVVTCLLIQSLIIECFAIAAYNIYIPVADAFARKITEGVVRDEYLHRNFGEEWLKANFDASKAELEEANRQNLPLVWLMLNEVADDARELGMERESLVEDFMIAYGEALENIGFTTREIMRMSAYGLAAV | 0.18 ± 0.03 | 0.0233 ± 0.001 | 130 ± 5 | 0.069 ± 0.0087 | 0.0102 ± 0.000333 | 150 ± 8.33 | 0.59 ± 0.07 | 0.0132 ± 0.0005 | 21.7 ± 1.67 | 0.93 ± 0.1 | 0.03 | 31.7
2 | cADO-1593 (Synechococcus elongatus PCC 7942 = FACHB-805; A121F) (protein, full length, codon-optimized gene in pET-28a, His-tag (nickel column), E. coli BL21(DE3); apo enzyme reconstituted with Fe(II)) MPQLEASLELDFQSESYKDAYSRINAIVIEGEQEAFDNYNRLAEMLPDQRDELHKLAKMEQRHMKGFMACGKNLSVTPDMGFAQKFFERLHENFKAAAAEGKVVTCLLIQSLIIECFAIAFYNIYIPVADAFARKITEGVVRDEYLHRNFGEEWLKANFDASKAELEEANRQNLPLVWLMLNEVADDARELGMERESLVEDFMIAYGEALENIGFTTREIMRMSAYGLAAV | 0.18 ± 0.036 | 0.0163 ± 0.001 | 90 ± 5 | 0.14 ± 0.022 | 0.0128 ± 0.000667 | 90 ± 5 | 0.56 ± 0.06 | 0.025 ± 0.00167 | 45 ± 3.33 | 0.96 ± 0.05 | 0.115 | 120
